*1 amine or outer side, *2 acyl side, *3 side chain or, on linkers, in order; H or OH if unused. Bridges are numbered along the chain shown (N, C = ends). Where no end group is shown, it is not given here. TBMB = c1c(C[*:1])cc(C[*:3])cc1C[*:2]
Assays:
[1] = biological target: T1, human carbonic anhydrase IX (CAIX) (human, UniProt Q16790 38-414); assay: competition fluorescence polarisation, tracer A-(SEQ ID NO:1)-A-Sar6-K(FI)
[2] = biological target: T1, human carbonic anhydrase IX (CAIX); assay: cell-based or functional assay
[3] = biological target: T1, human carbonic anhydrase IX (CAIX); assay: competition fluorescence polarisation, tracer A-(SEQ ID NO:1)-A-Sar6-K(FI); n = 1

Binder	Ki [1]	Enzyme IC50 [2]	Ki [3]
ACTECWVDGWVPCA (linker 2-5-13 via TBMB, Bicyclic peptide on TBMB scaffold) [61-01-02-N001]	7.13 nM	815 nM	
ACLECWVDGWVPCA (linker 2-5-13 via TBMB, Bicyclic peptide on TBMB scaffold) [61-01-04-N001]	5.77 nM	855 nM	
ACEECWVDGWVPCA (linker 2-5-13 via TBMB, Bicyclic peptide on TBMB scaffold) [61-01-05-N001]			12.2 nM
ACTECWIDGWVPCA (linker 2-5-13 via TBMB, Bicyclic peptide on TBMB scaffold) [61-01-07-N001]	7.9 nM		
ACSECWVDGWVSCA (linker 2-5-13 via TBMB, Bicyclic peptide on TBMB scaffold) [61-01-03-N001]	22.7 nM		
ACGECWVDGWVSCA (linker 2-5-13 via TBMB, Bicyclic peptide on TBMB scaffold) [61-01-09-N001]			39.8 nM
ACRECWVDGWVECA (linker 2-5-13 via TBMB, Bicyclic peptide on TBMB scaffold) [61-01-08-N001]			5.6 nM
ACWWCEDITGRPCA (linker 2-5-13 via TBMB, Bicyclic peptide on TBMB scaffold) [61-18-N001]			312 nM
ACGECWADGWVPCA (linker 2-5-13 via TBMB, Bicyclic peptide on TBMB scaffold) [61-01-01-N001]	81.5 nM		
